Experimental findings from patent publication US10233447B2, “Self-cleaving ribozymes and uses thereof” (The Children s Medical Center Corporation, priority 2003, dated 2019) are described below.

Data set [1] deals with self-cleavage of full length ribozymes. Put plainly: Catalytic rate measurement of in vitro transcribed ribozymes. The format is biochemical. To be noted: 50 mM Tris-HCl pH7.5, 23° C. The procedure:
Ribozymes were generated by in vitro transcription in the presence of 50 uM blocking antisense oligos. Full length ribozymes were purified and the cleavage rate determined in 50 mM Tris-HCI, pH7.5 at 23° C. Kobs was calculated according to the equation F1=F0+F∞(l−e^kt).

For data set [2], the system named is a variety of other commonly used cell lines. Put plainly: Transfection of N79 rz vector into other cell lines. To be noted: after transfection. Format: cell-based. The text has this: (a) and (b) N79 functioned efficiently in a variety of cell types. Numbers are the measurements of β-gal expressed. (c) N79 functioned efficiently at some but not all positions within the vector. […] The ±signs indicate standard deviation from mean of at least four independent measurements.
In addition, the N79 rz was able to function efficiently when placed within other transcriptional units which made use of different promoters and a different reporter gene (eGFP) (FIG. 2b). As Applicants had observed in the primary screen of different rz motifs for activity in mammalian cells, N79 was able to function when placed in several, but not all locations of the pMD transcriptional unit, albeit at different efficiencies (FIG. 2c). Importantly, placement of two rz sequences in tandem, in some cases (e.g., E position) led to a dramatic suppression of reporter gene expression (FIG. 2c).

Data set [3] relates to 293 cells. Put plainly: Transient transfection LacZ reporter assay of ribozyme self-cleavage. To be noted: rz at position E of pMD vector. The format is cell-based. An excerpt:
The approach is critically dependent upon both the ability of a specific self-cleaving ribozyme (rz) to effect the highly efficient cleavage (>99%) of an mRNA molecule into which it is embedded, and the availability of a small molecule capable of efficiently inhibiting self-cleavage of the cis-acting rz within an intracellular milieu. A first step in our studies was to identify candidate rz sequences capable of efficient cleavage in mammalian cells in the context of an ‘expression’ vector. For this purpose, Applicantsmade use of a transient transfection assay involving a standard mammalian expression vector (Ory, et al., 1996, Proc Natl Acad Sci USA 93, 11400-6) which encodes a LacZ reporter (FIG. 1b). […] After transfection of 293 cells with these vectors, protein extracts were prepared from cells and the β-gal level quantified.
1.5 μl Fugene-6 (Roche, Basel, Switzerland) was diluted in 100 μl OPTIMEM (Gibco, Carlsbad, Calif.) and incubated for 5 minutes at room temperature. This solution was added dropwise to 0.45 μg plasmid DNA and incubated for 15 minutes. The plasmid DNA contains either a wildtype or a mutant ribozyme and a Lacz reporter gene. The DNA mixture was then added dropwise to 3×10^5 HEK 293 cells (plated the previous day in a 35 mm dish). Cells were harvested for β-galactosidase assay 24 hours following transfection.
Plasmids carrying different ribozymes were transfected into HEK293T cells and lysed 24 h later. The cell extracts were incubated with ONPG, and the amount of B-galactosidase in cell extracts was measured by quantifying the processed ONPG using a luminometer.
Cleaving activity was determined by comparing the level of −galactosidase measured in the test sample to a control comprising a point mutation (A-+G) at position 14 which attenuates ribozyme activity. Briefly, transfected HEK293 cells were lysed with a lysis solution and the extracts of cells were separated from cell debris. The extracts were then incubated with ONPG, a chromogenic substrate of β-galactosidase. […] The intensity of yellow light emission was measured with a luminometer (Miller J., Experiments in Molecular Genetics, Cold Spring Harbor Laboratory, Cold Spring Harbor, N.Y. (1972)).
In general terms: In a reporter assay the amount or activity of a reporter protein is the signal.

B1: N79: N73 ribozyme transferred to position E of the vector, SEQ ID NO: 5 (nucleic acid)
chain: CUGAGAUGCAGGUACAUCCAGCUGAUGAGUCCCAAAUAGGACGAAACGCGCUUCGGUGCGUCCUGGAUUCCACUGCUAUCCAC
In the case of B1, the Kobs in data set [1] (0.5 mM Mg++) and in data set [1] (10 mM Mg++) was 0.84 ^−min throughout. For the same molecule, the B-gal expression entry in data set [2] is listed as “dramatically reduced”. Further, the “cleavage activity, fold difference between functional and inactive rz” value in data set [3] is on record as 225 fold.
